Source: article PMC9933121 (Proceedings of the National Academy of Sciences of the …, 2023)

What was measured:
[1] = target: T1, DENV2 strain 16681 premembrane (prM) protein, wild type (Dengue virus 2 strain 16681 (NC_001474)); assay: cell-based or functional assay
T1 chain: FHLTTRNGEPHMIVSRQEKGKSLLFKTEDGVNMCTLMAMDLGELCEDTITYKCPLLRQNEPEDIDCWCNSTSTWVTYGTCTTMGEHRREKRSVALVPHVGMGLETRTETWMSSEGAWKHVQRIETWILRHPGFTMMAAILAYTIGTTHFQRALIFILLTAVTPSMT

[2] = target: DENV2 strain 16681 premembrane (prM) protein, wild type (dengue virus 2 strain 16681)
[3] = target: trimeric prM–E spike of immature DENV2 strain 16681 virions (dengue virus 2 strain 16681); assay: cryo-EM structure

B1: prM13, murine prM-reactive monoclonal antibody (IgG2c) (antibody, V domains shown)
VH: AAQLQESGPELVKPGASVKISCKASGYTFTDYFINWVRQSHGKSLEWIGDFYPNNRGPTYNQKFEGKATLTVDKSSSTAYMELRSLTSDDSAVYYCARGLWDAWLSYWGQGTLVTVSA
VL: AIVATQSPAIMSASPGEKVTISCSASSSVSYMYWYQQKPGSSPKPWIYRTSNLASGVPTRFSGSGSGTSYSFTISSMEAEDAATYYCQQYHNYPRTFGGGTKAKSA
neutralisation of DENV2 RVPs, EC50 of the sensitive fraction of virions [1]: ~5 ng/mL

B2: prM12, murine prM-reactive monoclonal antibody (IgG2c) (antibody, V domains shown)
VH: EVQLQESGPELVKPGTSVKMSCKASGYTFTDYNIHWVKQSHGKSLEWIGYINPNNGGNKYTQKFEGRATLTVGKSSSTAYMELRSLTSEDSAVYYCARSPMYFYYDGSYYFDYWGQGTSLSVSS
VL: DIVLTQSPASLAVSLGQRATISYRASKSVSTSGYSYMHWNQQKPGQPPRLLIYLVSNLESGVPARFSGSGSGTDFTLNIHPVEEEDAATYYCQHIRELTFGAAPSAAAR
neutralisation of DENV2 RVPs, EC50 of the sensitive fraction of virions [2]: 5 ng/mL

B3: prM12 Fab fragment (Fab, V domains shown)
VH: EVQLQESGPELVKPGTSVKMSCKASGYTFTDYNIHWVKQSHGKSLEWIGYINPNNGGNKYTQKFEGRATLTVGKSSSTAYMELRSLTSEDSAVYYCARSPMYFYYDGSYYFDYWGQGTSLSVSS
VL: DIVLTQSPASLAVSLGQRATISYRASKSVSTSGYSYMHWNQQKPGQPPRLLIYLVSNLESGVPARFSGSGSGTDFTLNIHPVEEEDAATYYCQHIRELTFGAAPSAAAR
occupancy [3]: 100%
